Data published in patent US20250076311A1 (Chugai, published 2025).

T1: soluble mouse FcγRII, His-tagged (mouse, UniProt P08101 30-210, limits assumed)
T1 construct: Captured on the chip through an anti-His antibody
T1 sequence (looked up): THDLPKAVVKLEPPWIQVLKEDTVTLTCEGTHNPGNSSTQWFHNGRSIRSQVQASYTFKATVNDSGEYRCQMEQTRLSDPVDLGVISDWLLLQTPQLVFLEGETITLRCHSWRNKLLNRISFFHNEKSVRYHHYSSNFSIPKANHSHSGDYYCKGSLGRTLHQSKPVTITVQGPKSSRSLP

T2: human FcγRIIb constitutively expressed on MDCK cells (human, UniProt P31994 43-310)
T2 sequence (looked up): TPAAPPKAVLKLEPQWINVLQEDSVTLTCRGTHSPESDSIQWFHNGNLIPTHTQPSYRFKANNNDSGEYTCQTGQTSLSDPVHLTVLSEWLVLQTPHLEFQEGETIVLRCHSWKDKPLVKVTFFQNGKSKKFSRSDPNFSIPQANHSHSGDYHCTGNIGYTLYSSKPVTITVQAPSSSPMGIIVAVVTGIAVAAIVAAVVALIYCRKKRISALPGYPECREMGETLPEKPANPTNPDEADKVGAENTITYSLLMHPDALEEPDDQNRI

B1: M103205H795-P1531m/M103202L889-SK1 (antibody, human IgG1, kappa, name in EU numbering)
heavy: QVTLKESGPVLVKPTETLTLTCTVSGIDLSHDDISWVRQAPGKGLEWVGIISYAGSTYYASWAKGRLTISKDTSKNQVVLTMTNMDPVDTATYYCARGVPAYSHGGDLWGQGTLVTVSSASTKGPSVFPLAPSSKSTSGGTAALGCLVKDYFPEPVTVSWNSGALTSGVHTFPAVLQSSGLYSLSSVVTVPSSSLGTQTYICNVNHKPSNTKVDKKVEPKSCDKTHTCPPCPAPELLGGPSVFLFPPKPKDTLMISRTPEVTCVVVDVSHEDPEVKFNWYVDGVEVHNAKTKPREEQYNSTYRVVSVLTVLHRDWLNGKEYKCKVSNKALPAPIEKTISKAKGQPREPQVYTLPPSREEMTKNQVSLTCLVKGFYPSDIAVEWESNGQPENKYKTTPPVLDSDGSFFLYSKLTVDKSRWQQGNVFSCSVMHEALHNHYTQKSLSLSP
light: DIVMTQSPATLSLSPGERATLSCTSSQSVYHANWLSWFQQKPGQPPKLLIYWASTLAYGVPSRFSGSGSGTDFTLTISSLQPEDAATYYCAGGYGGGRYAFGQGTKVEIKRTVAAPSVFIFPPSDEQLKSGTASVVCLLNNFYPREAKVQWKVDNALQSGNSQESVTEQDSKDSTYSLSSTLTLSKADYEKHKVYACEVTHQGLSSPVTKSFNRGEC
notes: copies: 2 + 2
B2: M103205H795-P1544m/M103202L889-SK1 (antibody, human IgG1, kappa, name in EU numbering)
heavy: QVTLKESGPVLVKPTETLTLTCTVSGIDLSHDDISWVRQAPGKGLEWVGIISYAGSTYYASWAKGRLTISKDTSKNQVVLTMTNMDPVDTATYYCARGVPAYSHGGDLWGQGTLVTVSSASTKGPSVFPLAPSSKSTSGGTAALGCLVKDYFPEPVTVSWNSGALTSGVHTFPAVLQSSGLYSLSSVVTVPSSSLGTQTYICNVNHKPSNTKVDKKVEPKSCDKTHTCPPCPAPELLGGPSVFLFPPKPKDTLMISRTPEVTCVVVDVSHEDPEVKFNWYVDGVEVHNAKTKPREEQYNSTYRVVSVLTVLHRDWLNGKEYKCKVSNKALPAPIEKTISKAKGQPREPQVYTLPPSREEMTKNQVSLTCLVKGFYPSDIAVEWESNGQPENNYKTTPPVLDSRGSFFLYSKLTVKKSRWQQGNVFSCSVMHEALHNHYTQKSLSLSP
light: DIVMTQSPATLSLSPGERATLSCTSSQSVYHANWLSWFQQKPGQPPKLLIYWASTLAYGVPSRFSGSGSGTDFTLTISSLQPEDAATYYCAGGYGGGRYAFGQGTKVEIKRTVAAPSVFIFPPSDEQLKSGTASVVCLLNNFYPREAKVQWKVDNALQSGNSQESVTEQDSKDSTYSLSSTLTLSKADYEKHKVYACEVTHQGLSSPVTKSFNRGEC
notes: copies: 2 + 2
B3: M103205H795-P1532m/M103202L889-SK1 (antibody, human IgG1, kappa, name in EU numbering)
heavy: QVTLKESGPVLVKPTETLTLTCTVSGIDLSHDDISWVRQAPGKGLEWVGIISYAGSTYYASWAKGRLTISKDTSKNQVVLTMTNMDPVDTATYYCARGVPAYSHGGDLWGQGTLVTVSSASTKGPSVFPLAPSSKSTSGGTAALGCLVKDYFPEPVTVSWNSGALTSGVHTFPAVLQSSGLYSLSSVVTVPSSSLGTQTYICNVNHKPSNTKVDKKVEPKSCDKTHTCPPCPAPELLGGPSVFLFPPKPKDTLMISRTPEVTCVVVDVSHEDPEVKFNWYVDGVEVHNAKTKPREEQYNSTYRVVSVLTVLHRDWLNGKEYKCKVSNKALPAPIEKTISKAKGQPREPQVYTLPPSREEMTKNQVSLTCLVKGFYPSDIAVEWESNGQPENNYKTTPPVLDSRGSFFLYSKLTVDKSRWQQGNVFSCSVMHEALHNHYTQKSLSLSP
light: DIVMTQSPATLSLSPGERATLSCTSSQSVYHANWLSWFQQKPGQPPKLLIYWASTLAYGVPSRFSGSGSGTDFTLTISSLQPEDAATYYCAGGYGGGRYAFGQGTKVEIKRTVAAPSVFIFPPSDEQLKSGTASVVCLLNNFYPREAKVQWKVDNALQSGNSQESVTEQDSKDSTYSLSSTLTLSKADYEKHKVYACEVTHQGLSSPVTKSFNRGEC
notes: copies: 2 + 2
B4: M103205H795-P1538m/M103202L889-SK1 (antibody, human IgG1, kappa, name in EU numbering)
heavy: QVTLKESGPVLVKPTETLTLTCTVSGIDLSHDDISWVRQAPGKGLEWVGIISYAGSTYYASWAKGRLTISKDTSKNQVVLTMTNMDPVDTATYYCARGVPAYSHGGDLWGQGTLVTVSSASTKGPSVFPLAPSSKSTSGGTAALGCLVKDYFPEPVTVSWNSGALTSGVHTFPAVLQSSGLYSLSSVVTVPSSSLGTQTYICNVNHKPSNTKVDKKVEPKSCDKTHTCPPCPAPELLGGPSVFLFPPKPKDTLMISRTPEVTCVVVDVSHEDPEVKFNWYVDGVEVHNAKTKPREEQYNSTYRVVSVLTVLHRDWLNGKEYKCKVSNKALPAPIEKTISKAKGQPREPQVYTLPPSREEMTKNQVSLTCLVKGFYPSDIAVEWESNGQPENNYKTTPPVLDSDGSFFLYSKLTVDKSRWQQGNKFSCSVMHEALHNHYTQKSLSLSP
light: DIVMTQSPATLSLSPGERATLSCTSSQSVYHANWLSWFQQKPGQPPKLLIYWASTLAYGVPSRFSGSGSGTDFTLTISSLQPEDAATYYCAGGYGGGRYAFGQGTKVEIKRTVAAPSVFIFPPSDEQLKSGTASVVCLLNNFYPREAKVQWKVDNALQSGNSQESVTEQDSKDSTYSLSSTLTLSKADYEKHKVYACEVTHQGLSSPVTKSFNRGEC
notes: copies: 2 + 2
B5: M103205H795-P1540m/M103202L889-SK1 (antibody, human IgG1, kappa, name in EU numbering)
heavy: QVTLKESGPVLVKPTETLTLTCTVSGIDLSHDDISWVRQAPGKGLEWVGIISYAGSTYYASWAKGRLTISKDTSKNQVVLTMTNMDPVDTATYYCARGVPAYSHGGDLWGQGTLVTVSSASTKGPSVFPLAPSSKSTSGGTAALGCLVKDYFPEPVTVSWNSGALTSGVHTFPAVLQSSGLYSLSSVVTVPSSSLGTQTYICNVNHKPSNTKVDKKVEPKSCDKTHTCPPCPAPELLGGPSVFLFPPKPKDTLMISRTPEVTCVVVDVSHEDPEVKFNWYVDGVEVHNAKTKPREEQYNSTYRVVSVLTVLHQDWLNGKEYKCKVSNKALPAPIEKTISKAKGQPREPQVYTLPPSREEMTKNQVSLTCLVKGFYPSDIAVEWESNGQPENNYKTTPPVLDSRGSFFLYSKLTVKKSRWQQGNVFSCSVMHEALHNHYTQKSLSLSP
light: DIVMTQSPATLSLSPGERATLSCTSSQSVYHANWLSWFQQKPGQPPKLLIYWASTLAYGVPSRFSGSGSGTDFTLTISSLQPEDAATYYCAGGYGGGRYAFGQGTKVEIKRTVAAPSVFIFPPSDEQLKSGTASVVCLLNNFYPREAKVQWKVDNALQSGNSQESVTEQDSKDSTYSLSSTLTLSKADYEKHKVYACEVTHQGLSSPVTKSFNRGEC
notes: copies: 2 + 2
B6: M103205H795-P1537m/M103202L889-SK1 (antibody, human IgG1, kappa, name in EU numbering)
heavy: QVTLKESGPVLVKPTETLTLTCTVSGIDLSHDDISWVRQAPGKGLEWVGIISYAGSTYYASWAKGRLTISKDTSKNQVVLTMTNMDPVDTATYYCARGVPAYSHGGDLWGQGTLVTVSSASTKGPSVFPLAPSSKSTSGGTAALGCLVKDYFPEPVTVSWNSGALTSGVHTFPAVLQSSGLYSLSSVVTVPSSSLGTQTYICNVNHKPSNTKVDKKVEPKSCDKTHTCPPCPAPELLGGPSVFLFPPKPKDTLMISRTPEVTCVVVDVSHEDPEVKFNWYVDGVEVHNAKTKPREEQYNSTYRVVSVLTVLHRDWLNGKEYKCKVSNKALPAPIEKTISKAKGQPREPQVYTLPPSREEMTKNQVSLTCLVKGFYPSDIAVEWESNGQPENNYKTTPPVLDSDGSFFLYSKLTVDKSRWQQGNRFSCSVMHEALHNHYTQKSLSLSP
light: DIVMTQSPATLSLSPGERATLSCTSSQSVYHANWLSWFQQKPGQPPKLLIYWASTLAYGVPSRFSGSGSGTDFTLTISSLQPEDAATYYCAGGYGGGRYAFGQGTKVEIKRTVAAPSVFIFPPSDEQLKSGTASVVCLLNNFYPREAKVQWKVDNALQSGNSQESVTEQDSKDSTYSLSSTLTLSKADYEKHKVYACEVTHQGLSSPVTKSFNRGEC
notes: copies: 2 + 2
B7: M103205H795-P1533m/M103202L889-SK1 (antibody, human IgG1, kappa, name in EU numbering)
heavy: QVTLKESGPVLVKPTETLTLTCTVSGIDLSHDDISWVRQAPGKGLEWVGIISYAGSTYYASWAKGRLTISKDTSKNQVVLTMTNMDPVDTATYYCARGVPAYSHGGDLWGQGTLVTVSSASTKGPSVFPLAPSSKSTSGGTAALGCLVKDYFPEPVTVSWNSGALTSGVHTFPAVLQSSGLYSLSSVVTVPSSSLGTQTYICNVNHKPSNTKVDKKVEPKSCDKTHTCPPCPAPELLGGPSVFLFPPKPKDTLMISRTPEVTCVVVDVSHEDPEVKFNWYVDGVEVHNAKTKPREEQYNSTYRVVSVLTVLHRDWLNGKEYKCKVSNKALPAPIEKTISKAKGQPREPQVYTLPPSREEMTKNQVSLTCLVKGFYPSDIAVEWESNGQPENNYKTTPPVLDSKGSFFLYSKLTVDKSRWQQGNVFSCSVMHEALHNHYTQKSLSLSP
light: DIVMTQSPATLSLSPGERATLSCTSSQSVYHANWLSWFQQKPGQPPKLLIYWASTLAYGVPSRFSGSGSGTDFTLTISSLQPEDAATYYCAGGYGGGRYAFGQGTKVEIKRTVAAPSVFIFPPSDEQLKSGTASVVCLLNNFYPREAKVQWKVDNALQSGNSQESVTEQDSKDSTYSLSSTLTLSKADYEKHKVYACEVTHQGLSSPVTKSFNRGEC
notes: copies: 2 + 2
B8: M103205H795-P1539m/M103202L889-SK1 (antibody, human IgG1, kappa, name in EU numbering)
heavy: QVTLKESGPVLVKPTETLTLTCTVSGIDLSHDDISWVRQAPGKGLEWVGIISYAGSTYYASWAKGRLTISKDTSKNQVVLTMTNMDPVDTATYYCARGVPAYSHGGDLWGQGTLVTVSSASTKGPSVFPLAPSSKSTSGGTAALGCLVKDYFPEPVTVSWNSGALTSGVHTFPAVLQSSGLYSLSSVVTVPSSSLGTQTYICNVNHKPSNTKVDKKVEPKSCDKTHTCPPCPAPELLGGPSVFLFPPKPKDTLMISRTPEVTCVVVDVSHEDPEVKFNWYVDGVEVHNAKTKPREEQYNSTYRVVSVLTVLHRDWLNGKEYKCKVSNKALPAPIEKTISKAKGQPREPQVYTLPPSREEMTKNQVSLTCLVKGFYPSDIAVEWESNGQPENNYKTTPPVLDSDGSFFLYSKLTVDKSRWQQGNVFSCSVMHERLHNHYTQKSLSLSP
light: DIVMTQSPATLSLSPGERATLSCTSSQSVYHANWLSWFQQKPGQPPKLLIYWASTLAYGVPSRFSGSGSGTDFTLTISSLQPEDAATYYCAGGYGGGRYAFGQGTKVEIKRTVAAPSVFIFPPSDEQLKSGTASVVCLLNNFYPREAKVQWKVDNALQSGNSQESVTEQDSKDSTYSLSSTLTLSKADYEKHKVYACEVTHQGLSSPVTKSFNRGEC
notes: copies: 2 + 2
B9: M103205H795-P1534m/M103202L889-SK1 (antibody, human IgG1, kappa, name in EU numbering)
heavy: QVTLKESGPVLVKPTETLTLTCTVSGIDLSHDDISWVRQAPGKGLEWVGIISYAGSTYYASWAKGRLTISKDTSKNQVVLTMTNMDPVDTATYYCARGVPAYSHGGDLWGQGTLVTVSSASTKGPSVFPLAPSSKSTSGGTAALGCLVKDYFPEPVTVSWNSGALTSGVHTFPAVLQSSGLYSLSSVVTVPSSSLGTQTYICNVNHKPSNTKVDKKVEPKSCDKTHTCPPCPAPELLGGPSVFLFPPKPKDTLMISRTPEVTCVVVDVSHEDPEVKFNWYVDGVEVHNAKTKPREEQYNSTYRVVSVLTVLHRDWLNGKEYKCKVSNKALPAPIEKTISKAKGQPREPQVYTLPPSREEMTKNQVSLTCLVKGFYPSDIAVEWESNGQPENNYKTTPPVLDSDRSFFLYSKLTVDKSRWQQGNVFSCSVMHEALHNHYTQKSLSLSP
light: DIVMTQSPATLSLSPGERATLSCTSSQSVYHANWLSWFQQKPGQPPKLLIYWASTLAYGVPSRFSGSGSGTDFTLTISSLQPEDAATYYCAGGYGGGRYAFGQGTKVEIKRTVAAPSVFIFPPSDEQLKSGTASVVCLLNNFYPREAKVQWKVDNALQSGNSQESVTEQDSKDSTYSLSSTLTLSKADYEKHKVYACEVTHQGLSSPVTKSFNRGEC
notes: copies: 2 + 2
B10: M103205H795-P1536m/M103202L889-SK1 (antibody, human IgG1, kappa, name in EU numbering)
heavy: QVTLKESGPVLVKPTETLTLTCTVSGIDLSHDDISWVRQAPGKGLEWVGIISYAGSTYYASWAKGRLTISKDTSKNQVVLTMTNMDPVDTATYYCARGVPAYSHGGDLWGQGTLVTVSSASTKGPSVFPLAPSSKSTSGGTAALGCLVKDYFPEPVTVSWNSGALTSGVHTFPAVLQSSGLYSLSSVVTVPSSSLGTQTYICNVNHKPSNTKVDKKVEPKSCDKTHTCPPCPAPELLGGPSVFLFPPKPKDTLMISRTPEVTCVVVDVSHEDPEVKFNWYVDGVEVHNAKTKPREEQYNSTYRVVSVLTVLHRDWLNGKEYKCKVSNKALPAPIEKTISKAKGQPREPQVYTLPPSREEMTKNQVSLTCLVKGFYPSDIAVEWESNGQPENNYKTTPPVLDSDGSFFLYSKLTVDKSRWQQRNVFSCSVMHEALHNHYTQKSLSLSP
light: DIVMTQSPATLSLSPGERATLSCTSSQSVYHANWLSWFQQKPGQPPKLLIYWASTLAYGVPSRFSGSGSGTDFTLTISSLQPEDAATYYCAGGYGGGRYAFGQGTKVEIKRTVAAPSVFIFPPSDEQLKSGTASVVCLLNNFYPREAKVQWKVDNALQSGNSQESVTEQDSKDSTYSLSSTLTLSKADYEKHKVYACEVTHQGLSSPVTKSFNRGEC
notes: copies: 2 + 2
B11: M103205H795-P1541m/M103202L889-SK1 (antibody, human IgG1, kappa, name in EU numbering)
heavy: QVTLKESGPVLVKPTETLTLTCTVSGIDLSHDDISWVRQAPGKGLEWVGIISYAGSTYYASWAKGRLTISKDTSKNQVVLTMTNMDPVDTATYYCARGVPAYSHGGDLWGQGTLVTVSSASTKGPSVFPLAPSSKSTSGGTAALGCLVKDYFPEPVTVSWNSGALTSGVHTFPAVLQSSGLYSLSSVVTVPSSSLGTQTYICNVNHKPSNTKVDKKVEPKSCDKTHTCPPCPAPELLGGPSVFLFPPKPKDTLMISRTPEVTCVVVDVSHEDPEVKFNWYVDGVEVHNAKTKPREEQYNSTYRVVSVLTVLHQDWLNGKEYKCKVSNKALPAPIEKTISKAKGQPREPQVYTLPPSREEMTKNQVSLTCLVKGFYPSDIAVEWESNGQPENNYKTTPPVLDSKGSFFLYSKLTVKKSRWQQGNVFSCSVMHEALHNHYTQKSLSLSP
light: DIVMTQSPATLSLSPGERATLSCTSSQSVYHANWLSWFQQKPGQPPKLLIYWASTLAYGVPSRFSGSGSGTDFTLTISSLQPEDAATYYCAGGYGGGRYAFGQGTKVEIKRTVAAPSVFIFPPSDEQLKSGTASVVCLLNNFYPREAKVQWKVDNALQSGNSQESVTEQDSKDSTYSLSSTLTLSKADYEKHKVYACEVTHQGLSSPVTKSFNRGEC
notes: copies: 2 + 2
B12: M103205H795-P1535m/M103202L889-SK1 (antibody, human IgG1, kappa, name in EU numbering)
heavy: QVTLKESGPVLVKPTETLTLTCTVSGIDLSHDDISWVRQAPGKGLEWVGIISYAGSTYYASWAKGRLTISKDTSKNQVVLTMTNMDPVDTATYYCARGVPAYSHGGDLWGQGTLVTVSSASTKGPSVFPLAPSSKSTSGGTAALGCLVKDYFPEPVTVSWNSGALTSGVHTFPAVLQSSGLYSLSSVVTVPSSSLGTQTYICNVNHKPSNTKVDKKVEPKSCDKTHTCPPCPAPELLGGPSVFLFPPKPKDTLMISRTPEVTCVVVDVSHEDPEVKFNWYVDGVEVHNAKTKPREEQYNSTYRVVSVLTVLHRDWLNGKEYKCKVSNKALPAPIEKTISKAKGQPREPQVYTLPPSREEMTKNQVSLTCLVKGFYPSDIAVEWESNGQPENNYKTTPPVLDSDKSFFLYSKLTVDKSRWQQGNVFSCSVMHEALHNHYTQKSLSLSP
light: DIVMTQSPATLSLSPGERATLSCTSSQSVYHANWLSWFQQKPGQPPKLLIYWASTLAYGVPSRFSGSGSGTDFTLTISSLQPEDAATYYCAGGYGGGRYAFGQGTKVEIKRTVAAPSVFIFPPSDEQLKSGTASVVCLLNNFYPREAKVQWKVDNALQSGNSQESVTEQDSKDSTYSLSSTLTLSKADYEKHKVYACEVTHQGLSSPVTKSFNRGEC
notes: copies: 2 + 2
B13: M103205H795-P1543m/M103202L889-SK1 (antibody, human IgG1, kappa, name in EU numbering)
heavy: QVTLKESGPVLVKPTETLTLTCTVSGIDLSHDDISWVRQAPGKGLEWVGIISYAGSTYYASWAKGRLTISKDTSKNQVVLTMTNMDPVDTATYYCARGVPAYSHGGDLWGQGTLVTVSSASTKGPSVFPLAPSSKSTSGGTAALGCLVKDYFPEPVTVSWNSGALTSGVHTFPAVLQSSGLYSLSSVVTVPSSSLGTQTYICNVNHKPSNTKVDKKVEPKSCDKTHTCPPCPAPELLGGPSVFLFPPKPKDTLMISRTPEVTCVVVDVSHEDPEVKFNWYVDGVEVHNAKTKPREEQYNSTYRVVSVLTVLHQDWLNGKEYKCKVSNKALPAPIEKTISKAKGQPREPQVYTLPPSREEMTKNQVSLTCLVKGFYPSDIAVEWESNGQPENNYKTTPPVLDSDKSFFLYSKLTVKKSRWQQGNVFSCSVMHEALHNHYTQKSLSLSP
light: DIVMTQSPATLSLSPGERATLSCTSSQSVYHANWLSWFQQKPGQPPKLLIYWASTLAYGVPSRFSGSGSGTDFTLTISSLQPEDAATYYCAGGYGGGRYAFGQGTKVEIKRTVAAPSVFIFPPSDEQLKSGTASVVCLLNNFYPREAKVQWKVDNALQSGNSQESVTEQDSKDSTYSLSSTLTLSKADYEKHKVYACEVTHQGLSSPVTKSFNRGEC
notes: copies: 2 + 2
B14: M103205H795-P1542m/M103202L889-SK1 (antibody, human IgG1, kappa, name in EU numbering)
heavy: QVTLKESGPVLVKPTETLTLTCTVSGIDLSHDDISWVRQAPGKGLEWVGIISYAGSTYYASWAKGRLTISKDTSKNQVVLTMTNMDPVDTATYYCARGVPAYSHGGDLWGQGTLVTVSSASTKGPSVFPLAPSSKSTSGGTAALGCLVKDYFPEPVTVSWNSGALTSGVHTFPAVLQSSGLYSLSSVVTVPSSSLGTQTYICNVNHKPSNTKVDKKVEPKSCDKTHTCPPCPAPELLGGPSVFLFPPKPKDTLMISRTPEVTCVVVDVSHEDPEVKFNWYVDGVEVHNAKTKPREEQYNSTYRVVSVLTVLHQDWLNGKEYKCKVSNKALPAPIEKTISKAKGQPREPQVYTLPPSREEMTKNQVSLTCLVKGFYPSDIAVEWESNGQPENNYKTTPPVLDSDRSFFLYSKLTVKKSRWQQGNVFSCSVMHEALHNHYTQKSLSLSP
light: DIVMTQSPATLSLSPGERATLSCTSSQSVYHANWLSWFQQKPGQPPKLLIYWASTLAYGVPSRFSGSGSGTDFTLTISSLQPEDAATYYCAGGYGGGRYAFGQGTKVEIKRTVAAPSVFIFPPSDEQLKSGTASVVCLLNNFYPREAKVQWKVDNALQSGNSQESVTEQDSKDSTYSLSSTLTLSKADYEKHKVYACEVTHQGLSSPVTKSFNRGEC
notes: copies: 2 + 2

Key:
[1] = molecular target: T1, soluble mouse FcγRII, His-tagged; experiment: SPR, mouse FcγRII captured via His-tag, antigen-antibody complex injected, pH 7.4, 25 C
Experimental: Regarding the produced Fc region variant-containing antibodies, binding assays between soluble mouse FcγRII and antigen-antibody complexes were performed using BIACORE® T200 (GE Healthcare). Soluble mouse FcγRII was produced in the form of a His-tagged molecule by a method known to those skilled in the art. An appropriate amount of an anti-His antibody was fixed onto Sensor chip CM5 (GE Healthcare) by the amine coupling method using a His capture kit (GE Healthcare) to capture mouse FcγRII. Next, an antibody-antigen complex and a running buffer (as a reference solution) were injected, and interaction was allowed to take place with the mouse FcγRII captured onto the sensor chip. 20 mM N-(2-Acetamido)-2-aminoethanesulfonic acid, 150 mM NaCl, 1.2 mM CaCl₂), and 0.05% (w/v) TWEEN® 20 at pH7.4 was used as the running buffer, and the respective buffer was also used to dilute the soluble mouse FcγRII. To regenerate the sensor chip, 10 mM glycine-HCl at pH1.5 was used. All measurements were carried out at 25° C. […] To calculate the parameters, the BIACORE® T100 Evaluation Software (GE Healthcare) was used.

[2] = molecular target: T2, human FcγRIIb constitutively expressed …; experiment: cell-based or functional assay

Row | Binder | biacore IC binding (relative, SG1 = 1.00) [1] | celluar uptake (labelled human latent myostatin taken up as antigen-antibody complex) [2]
1 | B1 | 1.01 relative to SG1 | 2.35 relative to SG1 = 1.00
2 | B2 | 2.04 relative to SG1 | 7.66 relative to SG1 = 1.00
3 | B3 | 1.23 relative to SG1 | 4.16 relative to SG1 = 1.00
4 | B4 | 1.11 relative to SG1 | 1.84 relative to SG1 = 1.00
5 | B5 | 1.73 relative to SG1 | 7.64 relative to SG1 = 1.00
6 | B6 | 1.32 relative to SG1 | 2.77 relative to SG1 = 1.00
7 | B7 | 1.18 relative to SG1 | 3.52 relative to SG1 = 1.00
8 | B8 | 0.9 relative to SG1 | 3.2 relative to SG1 = 1.00
9 | B9 | 1.12 relative to SG1 | 3.12 relative to SG1 = 1.00
10 | B10 | 1.16 relative to SG1 | 2.05 relative to SG1 = 1.00
11 | B11 | 1.57 relative to SG1 | 7.17 relative to SG1 = 1.00
12 | B12 | 1.11 relative to SG1 | 2.49 relative to SG1 = 1.00
13 | B13 | 1.19 relative to SG1 | 3.7 relative to SG1 = 1.00
14 | B14 | 1.21 relative to SG1 | 3.32 relative to SG1 = 1.00
